Tests used:
Test in all cases: EMSA; 3 mM Mg acetate; 30 mM Tris-acetate pH 7.5, 3 mM Mg acetate, 20 mM NaCl, 37 C, 15 min, 100 nM labeled ssDNA; 6% PAGE in TBE
yRad52 = yRad52 (Saccharomyces cerevisiae, UniProt P06778 1-471); settings: protein: recombinant; tags: C-terminal His6; chain copies: 10; label: 5'-32P; single strand
hRAD52NM = target: T1, hRAD52NM (Homo sapiens, UniProt P43351 1-290); settings: protein: recombinant; tags: C-terminal His6; chain copies: 11; label: 5'-32P; single strand
T1 sequence: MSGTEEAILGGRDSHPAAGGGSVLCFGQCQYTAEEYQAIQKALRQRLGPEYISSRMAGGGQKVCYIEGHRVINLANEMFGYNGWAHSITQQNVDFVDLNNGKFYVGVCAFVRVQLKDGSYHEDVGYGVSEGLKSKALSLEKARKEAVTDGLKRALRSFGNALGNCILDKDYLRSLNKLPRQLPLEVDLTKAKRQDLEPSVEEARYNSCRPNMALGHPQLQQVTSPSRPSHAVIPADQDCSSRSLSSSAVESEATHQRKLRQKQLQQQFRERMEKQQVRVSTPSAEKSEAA

hRAD52 = target: T2, hRAD52 (Homo sapiens, UniProt P43351 1-418); settings: protein: recombinant; tags: C-terminal His6; label: 5'-32P; single strand
T2 sequence: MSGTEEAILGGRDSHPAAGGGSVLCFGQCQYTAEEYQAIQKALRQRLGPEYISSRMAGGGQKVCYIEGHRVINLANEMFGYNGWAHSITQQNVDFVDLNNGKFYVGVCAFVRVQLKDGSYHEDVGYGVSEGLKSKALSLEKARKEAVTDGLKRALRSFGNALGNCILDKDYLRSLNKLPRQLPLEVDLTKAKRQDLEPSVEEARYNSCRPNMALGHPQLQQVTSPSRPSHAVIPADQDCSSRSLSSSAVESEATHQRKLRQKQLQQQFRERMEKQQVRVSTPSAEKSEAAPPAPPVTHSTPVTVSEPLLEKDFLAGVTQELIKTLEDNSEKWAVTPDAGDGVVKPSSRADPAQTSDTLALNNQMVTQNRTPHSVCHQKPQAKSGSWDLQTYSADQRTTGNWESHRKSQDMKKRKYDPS

Measured: binding result

Sequence of yRad52 (P06778 whole entry): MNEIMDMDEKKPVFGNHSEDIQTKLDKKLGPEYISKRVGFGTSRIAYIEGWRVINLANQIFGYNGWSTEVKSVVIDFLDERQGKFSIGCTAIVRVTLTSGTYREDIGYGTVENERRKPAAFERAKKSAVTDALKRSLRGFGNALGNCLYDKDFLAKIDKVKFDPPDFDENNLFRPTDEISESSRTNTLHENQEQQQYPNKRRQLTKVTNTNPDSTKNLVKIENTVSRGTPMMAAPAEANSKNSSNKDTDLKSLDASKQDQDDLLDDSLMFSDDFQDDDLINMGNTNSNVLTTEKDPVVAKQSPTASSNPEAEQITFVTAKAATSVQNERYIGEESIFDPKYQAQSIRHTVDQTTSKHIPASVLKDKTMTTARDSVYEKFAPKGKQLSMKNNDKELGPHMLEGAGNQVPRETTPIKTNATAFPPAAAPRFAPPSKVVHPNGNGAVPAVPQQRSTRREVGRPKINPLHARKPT

B1: TSO252 (ssDNA)
DNA: TGGTTGAGTACTCACCAGTCACAGAAAAGCATCTTACGGATGGCATGACAGTAAGAGAATTATGCAGTGC
binds: all assays above

Source: article PMC4928909, “Roles of C-Terminal Region of Yeast and Human Rad52 in Rad51-Nucleoprotein Filament Formation and ssDNA Annealing”
